Experimental data taken from the supplement of paper PMC10201428.
± gives the standard deviation of the averaged measurements.

Columns and labels:
[1] = system: VchCAST RNA-guided transposition machinery (E. coli BL21(DE3) host, lacZ target); assay: relative integration efficiency (T-LR orientation) vs wild-type transposon end (log2 (normalized fold change)); transposon end mutated: left end; higher = more efficient transposition
In short: (§1)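 Each barcoded pool, 1549 left-end or 1849 right-end transposon variants in a pUC57 mini-transposon donor, went into E. coli BL21(DE3) with a T7-driven effector plasmid (CRISPR array, tniQ-cas8-cas7-cas6, tnsA-tnsB-tnsC). Plates contained 0.1 mM IPTG and were held at 37°C for 18 h. Input plasmids and genomic integration junctions were PCR-amplified and read by Illumina sequencing, with two biological output replicates and four reference barcodes. Relative integration efficiency is the fold change of output over input barcode abundance, normalised to the reference barcodes and log-transformed.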

[2] = system: VchCAST RNA-guided transposition machinery (E. coli BL21(DE3) host, lacZ target); assay: relative integration efficiency (T-RL orientation) vs wild-type transposon end (log2 (normalized fold change)); transposon end mutated: left end; higher = more efficient transposition
In short: as §1

| Sequence | relative integration efficiency (log2) [1] | relative integration efficiency (log2) [2] |
| --- | --- | --- |
| AATGTTGTTGATGCAACCATAAAGTGATATTTAATAATTCAACCATATATTGATATCTCATTTATAATCAGCAACTTAACCACAAAAACAAAACAACCATAAGTTGATATTTTTGTGAATCGAGTATTTCAGCAAAACTACTGCAGTAAGAA | -2.63 ± 2.9 | -3.05 ± 1.3 |
| AATGTTGTTGATGCAACCATAAAGTGATATTTAATAATTGGCAGTGAGCGCAACGCAATTCACAAAACAACCATATATTGATATCTCACAAAACAACCATAAGTTGATATTTTTGTGAATCGAGTATTTCAGCAAAACTACTGCAGTAAGAA | -3.88 ± 2.9 | -2.76 ± 1 |
| AATGTTGTTGATGCAACCATAAAGTGATATTTAATACAACCATAAAGTGATATTTAACTTAACCACACAACCATATATTGATATCTCACAAAACAACCATAAGTTGATATTTTTGTGAATCGAGTATTTCAGCAAAACTACTGCAGTAAGAA | -3.38 ± 1.9 | -5.26 ± 0.97 |
| AATGTTGTTGATGCAACCATAAAGTGATATTTAATACAACCATATATTGATATCTCACAAAACAACCATAAGTTGATATTTTTGTGAATCGAGTATTTCAGCAAAACTACTGCAGTAAGAAAGTTACTTCGTGGTATGGGAGGATCAAGGAG | -2.15 ± 1.6 | -4.83 ± 1.7 |
| AATGTTGTTGATGCAACCATAAAGTGATATTTAATACAACCATATATTGATATCTCATTATTTATAATCAGCAACTTAACCACAAAAACAAAACAACCATAAGTTGATATTTTTGTGAATCGAGTATTTCAGCAAAACTACTGCAGTAAGAA | -3.41 ± 3.5 | -4.61 ± 1.8 |
| AATGTTGTTGATGCAACCATAAAGTGATATTTAATACGGCGGGCGCCGACTACCAGGCCAACACCCCACCAACGCGCGGTCGCGAGACACCCCACCAACGCCTGGTCGCGGGGGTGTCCGATCTGATTTCAGCAAAACTACTGCAGTAAGAA | -4.75 ± 2 | -6.9 ± 1.3 |
| AATGTTGTTGATGCAACCATAAAGTGATATTTAATAGTACTGCGCGACTGAAATCATCATTAAAACGCAACCATATATTGATATCTCACAAAACAACCATAAGTTGATATTTTTGTGAATCGAGTATTTCAGCAAAACTACTGCAGTAAGAA | -3.4 ± 1.6 | -4.94 ± 0.88 |
| AATGTTGTTGATGCAACCATAAAGTGATATTTAATCAACCATAAAGTGATATTTAACTTAACCACAACAACCATATATTGATATCTCACAAAACAACCATAAGTTGATATTTTTGTGAATCGAGTATTTCAGCAAAACTACTGCAGTAAGAA | -0.257 ± 1.2 | -4.54 ± 1.2 |
| AATGTTGTTGATGCAACCATAAAGTGATATTTAATCAACCATATATTGATATCTCAATTATTTATAATCAGCAACTTAACCACAAAAACAAAACAACCATAAGTTGATATTTTTGTGAATCGAGTATTTCAGCAAAACTACTGCAGTAAGAA | -0.334 ± 1.6 | -2.99 ± 0.87 |
| AATGTTGTTGATGCAACCATAAAGTGATATTTAATCAACCATATATTGATATCTCACAAAACAACCATAAGTTGATATTTTTGTGAATCGAGTATTTCAGCAAAACTACTGCAGTAAGAAAGTTACTTCGTGGTATGGGAGGATCAAGGAGC | -0.405 ± 1 | -3.38 ± 1.4 |
| AATGTTGTTGATGCAACCATAAAGTGATATTTAATCCGGCGGGCGCCGACTACCAGGCCAACACCCCACCAACGCGCGGTCGCGAGACACCCCACCAACGCCTGGTCGCGGGGGTGTCCGATCTGATTTCAGCAAAACTACTGCAGTAAGAA | -4.25 ± 1 | -6.75 ± 1.3 |
| AATGTTGTTGATGCAACCATAAAGTGATATTTACAACCATAAAGTGATATTTAACTTAACCACAAAACAACCATATATTGATATCTCACAAAACAACCATAAGTTGATATTTTTGTGAATCGAGTATTTCAGCAAAACTACTGCAGTAAGAA | 1.11 ± 0.91 | -3.13 ± 0.76 |
| AATGTTGTTGATGCAACCATAAAGTGATATTTACAACCATATATTGATATCTCACAAAACAACCATAAGTTGATATTTTATAATTATTTATAATCAGCAACTTAACCACAAAATGTGAATCGAGTATTTCAGCAAAACTACTGCAGTAAGAA | 0.848 ± 1 | -1.4 ± 0.65 |
| AATGTTGTTGATGCAACCATAAAGTGATATTTACAACCATATATTGATATCTCACAAAACAACCATAAGTTGATATTTTTGTGAATCGAGTATTTCAGCAAAACTACTGCAGTAAGAAAGTTACTTCGTGGTATGGGAGGATCAAGGAGCCA | 0.662 ± 0.89 | -2.61 ± 1.1 |
| AATGTTGTTGATGCAACCATAAAGTGATATTTACAACCATATATTGATATCTCACAAACAACCATAAGTTGATATTTTTGTGAATCGAGTATTTCAGCAAAACTACTGCAGTAAGAAAGTTACTTCGTGGTATGGGAGGATCAAGGAGCCAA | 2.04 ± 0.88 | -2 ± 0.74 |
| AATGTTGTTGATGCAACCATAAAGTGATATTTACAACCATATATTGATATCTCACAACAACCATAAGTTGATATTTTTGTGAATCGAGTATTTCAGCAAAACTACTGCAGTAAGAAAGTTACTTCGTGGTATGGGAGGATCAAGGAGCCAAT | 2.75 ± 0.92 | -2.68 ± 0.7 |
| AATGTTGTTGATGCAACCATAAAGTGATATTTACAACCATATATTGATATCTCACACAACCATAAGTTGATATTTTTGTGAATCGAGTATTTCAGCAAAACTACTGCAGTAAGAAAGTTACTTCGTGGTATGGGAGGATCAAGGAGCCAATA | 3.33 ± 0.87 | -2.53 ± 0.78 |
| AATGTTGTTGATGCAACCATAAAGTGATATTTACAACCATATATTGATATCTCATAATTATTTATAATCAGCAACTTAACCACAAAAACAAAACAACCATAAGTTGATATTTTTGTGAATCGAGTATTTCAGCAAAACTACTGCAGTAAGAA | -0.75 ± 1.4 | -1.85 ± 0.76 |
| AATGTTGTTGATGCAACCATAAAGTGATATTTACAACCATATATTGATATCTCTCACAACCATAAGTTGATATTTCTCTGATCATAGTCAGACCAACATTGCTACGACCCGTATTCGCACCGACACTGTGAATCGAGTATTTCAGCAAAACT | 2.61 ± 1.1 | -2.28 ± 0.64 |
| AATGTTGTTGATGCAACCATAAAGTGATATTTACAACCATATATTGATATCTCTCACAACCATAAGTTGATATTTTTGTGAATCGAGTATTTCAGCAAAACTACTGCAGTAAGAAAGTTACTTCGTGGTATGGGAGGATCAAGGAGCCAATA | 3.04 ± 0.96 | -2.79 ± 0.97 |
| AATGTTGTTGATGCAACCATAAAGTGATATTTACACGAAGTGGCAACTGCCGTGCTGGCGTGCGATGCAACCATATATTGATATCTCACAAAACAACCATAAGTTGATATTTTTGTGAATCGAGTATTTCAGCAAAACTACTGCAGTAAGAA | 0.496 ± 0.1 | -2.73 ± 0.84 |
| AATGTTGTTGATGCAACCATAAAGTGATATTTACCGACTGCCTGCCATCCGCCGCCGCACCGCAGCCCAACCATATATTGATATCTCACAAAACAACCATAAGTTGATATTTTTGTGAATCGAGTATTTCAGCAAAACTACTGCAGTAAGAA | -3.03 ± 1.2 | -2.99 ± 0.89 |
| AATGTTGTTGATGCAACCATAAAGTGATATTTACCGACTGTCTGCCATCAGCCGCTTAACCGCAGCCCAACCATATATTGATATCTCACAAAACAACCATAAGTTGATATTTTTGTGAATCGAGTATTTCAGCAAAACTACTGCAGTAAGAA | -3.56 ± 0.14 | -3.07 ± 0.93 |
| AATGTTGTTGATGCAACCATAAAGTGATATTTACCGACTGTCTGCCATCCGCCGCTGAACCGCAGCCCAACCATATATTGATATCTCACAAAACAACCATAAGTTGATATTTTTGTGAATCGAGTATTTCAGCAAAACTACTGCAGTAAGAA | -3.04 ± 1.6 | -2.98 ± 0.99 |
